Measurements published in patent US8822165B2, “Method for producing cAMP using chimeric olfactory receptor” (Panasonic Corporation, priority 2010, dated 2014).

B1: chimera2: EC1-IC1 domains of the β1AR, TM2-TM7 domains of the mOREG, IC4 domain of the β1AR (protein)
chain: MGAGALALGASEPCNLSSAAPLPDGAATAARLLVLASPPASLLPPASEGSAPLSQQWTAGMGLLLALIVLLIVVGNVLVIVAIAKTPRLQTLTNLTRPMYFFLSHLSFVDFCYSSIVAPKMLVNLVTMNRGISFVGCLVQFFFFCTFVVTESFLLGVMAYDRFVAIRNPLLYTVAMSQRLCAMLVLGSYAWGVVCSLILTCSALNLSFYGFNMINHFFCEFSSLLSLSRSDTSVSQLLLFVFATFNEISTLLIILLSYVLIVVTILKMKSASGRRKAFSTCASHLTAITIFHGTILFLYCVPNSKNSRHTVKVASVFYTVVIPMLNPLIYSLRNKSRDFRKAFQRLLCCARRAACRRRAAHGDRPRASGCLARAGPPPSPGAPSDDDDDDAGATPPARLLEPWAGCNGGTTTVDSDSSLDEPGRQGFSSESKV
modifications: chimera 2
B2: Rho-myc-mOREG: mouse olfactory receptor for eugenol with N-terminal Rho tag and myc epitope tag (protein)
chain: MNGTEGPNFYVPFSNKTGVVEQKLISEEDLEFMTLSDGNHSGAVFTLLGFSDYPELTIPLFLIFLTIYSITVVGNIGMIVIIRINPKLHIPMYFFLSHLSFVDFCYSSIVAPKMLVNLVTMNRGISFVGCLVQFFFFCTFVVTESFLLGVMAYDRFVAIRNPLLYTVAMSQRLCAMLVLGSYAWGVVCSLILTCSALNLSFYGFNMINHFFCEFSSLLSLSRSDTSVSQLLLFVFATFNEISTLLIILLSYVLIVVTILKMKSASGRRKAFSTCASHLTAITIFHGTILFLYCVPNSKNSRHTVKVASVFYTVVIPMLNPLIYSLRNKDVKDTVKKIIGTKVYSS
modifications: Rho-myc-mOREG
B3: Rho-mOREG: mouse olfactory receptor for eugenol with N-terminal Rho tag (protein)
chain: MNGTEGPNFYVPFSNKTGVVMTLSDGNHSGAVFTLLGFSDYPELTIPLFLIFLTIYSITVVGNIGMIVIIRINPKLHIPMYFFLSHLSFVDFCYSSIVAPKMLVNLVTMNRGISFVGCLVQFFFFCTFVVTESFLLGVMAYDRFVAIRNPLLYTVAMSQRLCAMLVLGSYAWGVVCSLILTCSALNLSFYGFNMINHFFCEFSSLLSLSRSDTSVSQLLLFVFATFNEISTLLIILLSYVLIVVTILKMKSASGRRKAFSTCASHLTAITIFHGTILFLYCVPNSKNSRHTVKVASVFYTVVIPMLNPLIYSLRNKDVKDTVKKIIGTKVYSS
modifications: Rho-mOREG
notes: mouse olfactory receptor for eugenol with N-terminal Rho tag
B4: chimera1: IC4 domain of the Rho-myc-mOREG is substituted with the IC4 domain of the beta-1 adrenergic receptor (protein)
chain: MNGTEGPNFYVPFSNKTGVVEQKLISEEDLEFMTLSDGNHSGAVFTLLGFSDYPELTIPLFLIFLTIYSITVVGNIGMIVIIRINPKLHIPMYFFLSHLSFVDFCYSSIVAPKMLVNLVTMNRGISFVGCLVQFFFFCTFVVTESFLLGVMAYDRFVAIRNPLLYTVAMSQRLCAMLVLGSYAWGVVCSLILTCSALNLSFYGFNMINHFFCEFSSLLSLSRSDTSVSQLLLFVFATFNEISTLLIILLSYVLIVVTILKMKSASGRRKAFSTCASHLTAITIFHGTILFLYCVPNSKNSRHTVKVASVFYTVVIPMLNPLIYSLRNKDFRKAFQRLLCCARRAACRRRAAHGDRPRASGCLARAGPPPSPGAPSDDDDDDAGATPPARLLEPWAGCNGGTTTVDSDSSLDEPGRQGFSSESKV
modifications: chimera 1
notes: IC4 domain of the Rho-myc-mOREG is substituted with the IC4 domain of the beta-1 adrenergic receptor

What was measured:
[1] = system: HEK293T cells; assay: cAMP production by mOREG-derived receptors expressed in HEK293T cells, eugenol as agonist (Experiment 1); format: cell-based
Protocol: Subsequently, the HEK293T cells were transfected with the above-mentioned three plasmids by a lipofection method. The HEK293T cells were incubated for 48 hours, and the β1AR consisting of the protein represented by SEQ ID NO: 03 was expressed on the cell membrane of the HEK293T cell.
The abbreviation “IBMX” means 3-isobutyl-1-methylxanthine. The IBMX is one of the phosphodiesterase inhibitors. The IBMX stabilizes cAMP, which is unstable.
The expression was conducted similarly to that of the step 2 of the reference example 1 except that the plasmid (Rho-mOREG) was used instead of the plasmid (β1AR). In this way, the Rho-mOREG (SEQ ID NO: 34) was expressed on a cell membrane.
Based on the measured cAMP concentration, a concentration increase value was calculated in accordance with the following equation: (Concentration increase value)=(the cAMP concentration measured when the concentration of the eugenol was 300μM)−(the cAMP concentration measured when the concentration of the eugenol was 0 μM)

[2] = system: HEK293T cells; assay: as above; format: cell-based; remark: listed apart in the source

Row | Molecule | concentration increase value of the cAMP ([1]; eugenol 300 μM minus eugenol 0 μM) [pmol/microgram] | concentration increase value of the cAMP ([1]; eugenol 300 μM (Table 5)) | concentration increase value of the cAMP ([2]; eugenol 30 μM) | concentration increase value of the cAMP ([2]; eugenol 1000 μM) | cAMP concentration ([1]; eugenol 0 μM) [pmol/µg] | concentration increase value compared with the other olfactory receptors derived from the mOREG (in words) ([1]; eugenol 300 μM, Table 4) | concentration increase value of the cAMP compared with the other olfactory receptors (in words) ([2]; regardless of the concentration of eugenol, Table 5)
1 | B1 | 0.0002 | – | – | – | – | – | –
2 | B2 | – | 0.0060 | 0.0028 | 0.0190 | – | – | –
3 | B3 | – | 0.0018 | 0.0012 | 0.0026 | 0.00633 | – | –
4 | B4 | – | 0.018 | 0.0065 | 0.031 | – | much greater | greater
